One substance from patent US20200164020A1 can be followed below.

The target of this assay is IFNβ in spent medium of HEp-2 cells transfected with siPUM1 (UniProt P01574). Nature of the assay: cell-based or functional assay.
Chain of UniProt P01574 (P01574 22-187 limits assumed): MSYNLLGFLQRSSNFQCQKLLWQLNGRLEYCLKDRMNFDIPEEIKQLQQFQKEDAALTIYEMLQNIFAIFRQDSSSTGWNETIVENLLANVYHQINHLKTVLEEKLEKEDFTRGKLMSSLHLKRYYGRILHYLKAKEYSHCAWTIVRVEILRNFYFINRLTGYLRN

“anti-IFNβ antibody (R&D Systems, MAB814-100)” returned an accumulation of HSV-1 viral proteins (immunoblot) in HEp-2 cells exposed to siPUM1 spent medium pre-incubated with antibody, IFN neutralization assay of 2 to 4 fold.
